The values that follow come from patent publication US20150197559A1 (University of California, published 2015).

Numbering of substitutions follows the chain as printed.

In experiment [1] the target is T1, BoNT/A1 (Hall hyper) (Clostridium botulinum, UniProt P0DPI0 2-1296). In words: KinExA flow fluorimetry, IgG in solution. (In general: Kinetic exclusion samples the free partner from a solution-phase mixture.)
Experiment [2] concerns the target T1, BoNT/A1 (Hall hyper). The experiment is described as follows: flow cytometry, yeast-displayed Fab against yeast-displayed scFv.
Experiment [3] has as its target T1, BoNT/A1 (Hall hyper). In words: flow cytometry, yeast-displayed Fab, soluble toxin. (In general: Flow cytometry measures light scatter and fluorescence of single cells or particles in a stream.)
Experiment [4] addresses T2, BoNT/B1 (Clostridium botulinum, UniProt P10844 2-1291).
T2 sequence: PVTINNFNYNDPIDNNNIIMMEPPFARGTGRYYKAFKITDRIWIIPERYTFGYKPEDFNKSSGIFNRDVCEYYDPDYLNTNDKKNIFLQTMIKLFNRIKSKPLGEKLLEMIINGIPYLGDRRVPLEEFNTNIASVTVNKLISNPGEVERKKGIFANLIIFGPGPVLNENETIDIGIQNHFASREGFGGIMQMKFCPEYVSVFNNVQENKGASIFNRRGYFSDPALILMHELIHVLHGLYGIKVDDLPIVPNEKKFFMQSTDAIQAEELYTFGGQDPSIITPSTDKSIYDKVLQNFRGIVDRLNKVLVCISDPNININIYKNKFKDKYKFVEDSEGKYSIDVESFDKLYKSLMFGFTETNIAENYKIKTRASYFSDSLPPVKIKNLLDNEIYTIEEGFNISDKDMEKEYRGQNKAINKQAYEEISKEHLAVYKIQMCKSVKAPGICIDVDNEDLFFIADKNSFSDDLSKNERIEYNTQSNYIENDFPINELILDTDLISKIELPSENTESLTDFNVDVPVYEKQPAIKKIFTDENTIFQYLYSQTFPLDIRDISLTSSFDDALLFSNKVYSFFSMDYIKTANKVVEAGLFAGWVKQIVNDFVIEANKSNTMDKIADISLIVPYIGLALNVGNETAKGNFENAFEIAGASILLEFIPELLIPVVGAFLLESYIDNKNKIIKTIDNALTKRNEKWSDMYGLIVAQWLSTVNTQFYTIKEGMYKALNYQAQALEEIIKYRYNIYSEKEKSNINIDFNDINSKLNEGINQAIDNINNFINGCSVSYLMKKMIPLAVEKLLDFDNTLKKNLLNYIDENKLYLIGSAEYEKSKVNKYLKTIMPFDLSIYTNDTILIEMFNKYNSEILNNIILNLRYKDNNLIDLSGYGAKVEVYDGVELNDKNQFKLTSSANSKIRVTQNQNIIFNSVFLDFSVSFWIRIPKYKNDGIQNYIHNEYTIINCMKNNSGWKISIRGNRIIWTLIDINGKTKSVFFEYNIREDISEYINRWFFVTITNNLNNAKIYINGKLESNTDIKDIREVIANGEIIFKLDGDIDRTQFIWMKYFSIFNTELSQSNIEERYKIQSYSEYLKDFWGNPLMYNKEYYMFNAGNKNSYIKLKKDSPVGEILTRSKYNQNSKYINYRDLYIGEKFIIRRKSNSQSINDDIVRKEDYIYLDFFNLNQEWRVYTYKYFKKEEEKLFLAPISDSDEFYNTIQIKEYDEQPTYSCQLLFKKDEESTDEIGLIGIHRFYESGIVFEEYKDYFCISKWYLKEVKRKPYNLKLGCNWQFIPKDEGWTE
The experiment is described as follows: flow cytometry, yeast-displayed parental scFv.

Experiment [5] deals with T2, BoNT/B1. The experiment is described as follows: flow cytometry, yeast-displayed scFv, soluble toxin.
For experiment [6], the target named is T1, BoNT/A1 (Hall hyper). Described as above.
The target of experiment [7] is T1, BoNT/A1 (Hall hyper). Described as above. This is another data set of the same source.
Experiment [8] has as its target T1, BoNT/A1 (Hall hyper). In words: flow cytometry, yeast-displayed scFv, soluble BoNT/A1.
For experiment [9], the target named is T1, BoNT/A1 (Hall hyper).
For experiment [10], the target named is T2, BoNT/B1. In words: flow cytometry, yeast-displayed Fab, soluble toxin.
The target in experiment [11] is T2, BoNT/B1. The experiment is described as follows: flow cytometry, yeast-displayed Fab, soluble toxin. The source holds these as a separate data set.
Experiment [12] deals with T2, BoNT/B1. In words: yeast-displayed Fab against parental B6 scFv, flow cytometry.
The target of experiment [13] is T2, BoNT/B1.
In experiment [14] the target is T2, BoNT/B1. The experiment is described as follows: KinExA flow fluorimetry, IgG in solution.
The target of another experiment is BoNT/B3 (Clostridium botulinum). The experiment is described as follows: flow cytometry, yeast-displayed scFv, soluble toxin.
For experiment [15], the target named is T2, BoNT/B1. The description is as above. This is another data set of the same source.
A further experiment addresses BoNT/B4 (Clostridium botulinum). The description is as above.
In a further experiment the target is BoNT/B2 (Clostridium botulinum). Described as above.
Experiment [16] has as its target T2, BoNT/B1. The experiment is described as follows: yeast-displayed Fab against parental B11 scFv, flow cytometry.
Experiment [17] concerns the target T2, BoNT/B1. In words: flow cytometry, yeast-displayed Fab against yeast-displayed scFv.

B1: ING1 IgG (antibody, V domains shown)
VH: QVQLQQSGGGLVQPGGSLRLSCAASGFTFSNYAMTWVRQAPGKGLEWVSSISVGGSDTYYADSVKGRFTVSRDNSKNTLLLQMNSLRAEDTAVYYCAKVRTKYCSSLSCFAGFDSWGQGTRVTVSS
VL: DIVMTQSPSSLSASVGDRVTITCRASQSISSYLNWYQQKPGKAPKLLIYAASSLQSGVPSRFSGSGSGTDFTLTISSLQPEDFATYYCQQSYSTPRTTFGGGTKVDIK
For B1, in the experiment with BoNT/A1 (Hall hyper) [1], the Kd (as a rule, a measure of binding affinity in units of concentration) was found to be 0.314 nM.

B2: ING1 Fab (Fab, V domains shown)
VH: B1 VH
VL: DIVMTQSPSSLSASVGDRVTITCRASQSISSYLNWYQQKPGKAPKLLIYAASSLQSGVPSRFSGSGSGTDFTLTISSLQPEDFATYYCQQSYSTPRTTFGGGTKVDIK
For the molecule B2, the “fold lower affinity than the scFv” value with BoNT/A1 (Hall hyper) [2] was 3.9 fold. Besides, binding with BoNT/A1 (Hall hyper) [3] was characterised by a dissociation constant (Kd) of 20.6 nM.

B3: B6 scFv (scFv)
scFv: QVQLVQSGAEVKKPGESLVISCKASGDKDTFTSFWIAWVRQMPGKGLEWMGIIYAGDSDTRYSPSFQGHVNISVDRSTNTAYLQWSSLKASDTAMYYCARHDSRYKYFYFGMDVWGQGTTVTVSSGGGGSGGGGSGGGGSDVVMTQSPSSLSASVGDRITITCQAGQDISNFLNWYQQKPGKAPKLLIRDASNLETGVPSRFSGGGSGTHFTFTISSLHPEDIATYFCQQYDNLPYTFGQGTKLEIK
Regarding B3, the Kd with BoNT/B1 [4] and in the experiment with BoNT/B1 [5] was 2.71 nM each time.

B4: ING2 scFv (scFv, V domains shown)
VH: QVQLVQSGAEVKKPGSSVKVSCKASGDTFNRNAIAWVRQAPGQGLEWMGRIIPNLRTTHYAQKFQGRVAITADKHTNTVFMELSSLRSEDTAVYYCARDPYYYSYMDVWGKGTTVTVSS
VL: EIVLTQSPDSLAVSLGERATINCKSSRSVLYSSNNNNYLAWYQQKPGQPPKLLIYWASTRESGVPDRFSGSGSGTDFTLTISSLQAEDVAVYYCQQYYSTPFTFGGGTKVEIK
As for B4, the Kd in the experiment with BoNT/A1 (Hall hyper) [6] was 0.24 nM; with BoNT/A1 (Hall hyper) [7], 0.238 nM; with BoNT/A1 (Hall hyper) [8] it was 0.25 nM.

B5: ING2 IgG (antibody, V domains shown)
VH: B4 VH
VL: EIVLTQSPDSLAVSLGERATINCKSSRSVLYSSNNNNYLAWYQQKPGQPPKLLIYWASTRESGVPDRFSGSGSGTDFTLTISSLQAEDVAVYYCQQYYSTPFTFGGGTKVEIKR
In the case of B5, binding with BoNT/A1 (Hall hyper) [1] was characterised by a dissociation constant (Kd) of 0.00957 nM. For the same molecule, the “fold increase in affinity, IgG against parental scFv” value with BoNT/A1 (Hall hyper) [9] was in the range of 1.5 to 25 fold.

B6: B6.1 Fab (Fab, V domains shown)
VH: QVQLVQSGAEVKKPGESLVISCKASGDKDTFTSFWIAWVRQMPGKGLEWMGIIYAGDSDTRYSPSFQGHVNISVDRSTNTAYLQWSSLKASDTAMYYCARHDSRYKYFYFGMDVWGQGTTVTVSS
VL: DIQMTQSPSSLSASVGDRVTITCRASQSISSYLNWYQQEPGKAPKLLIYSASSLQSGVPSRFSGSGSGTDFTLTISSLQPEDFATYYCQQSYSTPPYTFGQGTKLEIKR
As for B6, the Kd in the experiment with BoNT/B1 [10] and with BoNT/B1 [11] was 0.286 nM each time. Moreover, in the experiment with BoNT/B1 [12], the “KD wild type/KD matured” value turned out to be 9 fold.

B7: B6.1 IgG (antibody, V domains shown)
VH: B6 VH
VL: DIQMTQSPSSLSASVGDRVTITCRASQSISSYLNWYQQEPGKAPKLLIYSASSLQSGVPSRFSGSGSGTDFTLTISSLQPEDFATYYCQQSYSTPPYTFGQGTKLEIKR
B7: the “fold increase in affinity, IgG against yeast displayed Fab” value with BoNT/B1 [13] is 42 fold. The molecule also registered a Kd in the experiment with BoNT/B1 [14] of 0.00682 nM.

B8: 2B27 scFv (scFv, V domains shown)
VH: EVQLQESGPGLVKPSETLSVTCAVSGGSISSSNYSWAWIRQPPGKGLEWIGTMYYSGSTHYHPSLKSRVTISVDTSKSQLSLKLSSVTAADTAVYYCARRRLLGPSPYYFDYWGQGTLVTVSS
VL: QSVVTQPPSVSGAPGQRVTISCSGSSSNIGAGYDVHWYQQLPGTAPKLLIYGNNNRPSGVPDRFSGSKSGTSASLAITGLQAEDEADYYCQSYDSSLSAYVFGTGTKLTVLG
With B8, the Kd came to 2.32 nM in the experiment with BoNT/B3, 1.9 nM with BoNT/B1 [15], 0.77 nM with BoNT/B4 and 0.56 nM with BoNT/B2.

B9: B11E8 Fab (Fab, V domains shown)
VH: EVQLVQSGGGVVQPGRSLRLSCAASGFIFRTYGMHWVRQAPGKGLEWVAFVSSDGNNKFYSDSVKGRFTISRDNAKNTLYLQMNSLETEDTAMYYCAKDRYPIDCSGGSCFSYGMDVWGQGTTVTVSS
VL: EIVLTQSPATLSVSPGERATLSCRASQSVSKFLAWYQQKRGQAPRLLIYGASTRATGIPARFSGSGSGTEFALTISSLQSEDFADYYCQQYDNWPITFGQGTRLEIKR
As to B9, in the experiment with BoNT/B1 [11], binding was characterised by a dissociation constant (Kd) of 0.081 nM. For the same molecule, the “KD wild type/KD matured” value with BoNT/B1 [16] stood at 32 fold.

B10: B11E8 IgG (antibody, V domains shown)
VH: B9 VH
VL: B9 VL
With B10, the “fold increase in affinity, IgG against yeast displayed Fab” value with BoNT/B1 [13] was determined as 4.85 fold. Besides, in the experiment with BoNT/B1 [14], the Kd was found to be 0.00659 nM.

B11: B11 Fab (Fab, V domains shown)
VH: B9 VH with E1Q, V5L, G8A, S71P, M93V
VL: DIVMTQSPSTLSASVGDRVTVTCRASQSINSWLAWYQQKPGKAPKLLIYEASSLESGVPSRFSGSGSGTEFTLTISSLQPDDFATYYCQQYDSYWLTFGGGTKVEIKR
As for B11, the “fold lower affinity than the scFv” value with BoNT/B1 [17] is 2.5 fold.

B12: 2B29 scFv (scFv, V domains shown)
VH: QVQLQESGPGLVKPSETLSLTCSVSGGSINSGTYYWTWIRQHPGKGLEWIGYIYYSGTTYYNPSLKSRVSMSVDTSKNLFSLKMNSVTAADTALYYCARGNPQYDTSGSYTGLYFDFWGQGTLVTVSS
VL: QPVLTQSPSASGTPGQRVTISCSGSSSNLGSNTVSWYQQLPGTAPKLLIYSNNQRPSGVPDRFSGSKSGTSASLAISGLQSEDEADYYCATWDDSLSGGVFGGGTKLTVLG
As for B12, the Kd in the experiment with BoNT/B3 turned out to be 1.61 nM; with BoNT/B1 [15], 1.11 nM; in the experiment with BoNT/B4, 1.29 nM; with BoNT/B2, 1.02 nM.

B13: B11 scFv (scFv)
scFv: QVQLLQSAGGVVQPGRSLRLSCAASGFIFRTYGMHWVRQAPGKGLEWVAFVSSDGNNKFYSDSVKGRFTIPRDNAKNTLYLQMNSLETEDTAVYYCAKDRYPIDCSGGSCFSYGMDVWGQGTTVTVSSGGGGSGGGGSGGGGSDIVMTQSPSTLSASVGDRVTVTCRASQSINSWLAWYQQKPGKAPKLLIYEASSLESGVPSRFSGSGSGTEFTLTISSLQPDDFATYYCQQYDSYWLTFGGGTKVEIK
B13: the Kd with BoNT/B1 [4] and with BoNT/B1 [5] was 2.62 nM in each case.

B14: 1B11 scFv (scFv)
chain: B13 scFv
In the case of B14, the Kd with BoNT/B3 came to 4.43 nM; in the experiment with BoNT/B1 [15], 2.6 nM.
